# Test results: article PMC2805019 (ACS chemical biology, 2008)
# Key:
# [1] = molecular target: apoptosis inducing factor (AIF) (Homo sapiens, UniProt O95831); assay: ITC; format: binding
# [2] = molecular target: T1, AIF (57 kDa form, AIFΔ1-121) (human, UniProt O95831 122-613); assay: competition
# [3] = molecular target: T2, MazEF toxin-antitoxin complex (UniProt P0AE72;P0AE70 1-82;1-111); assay: photonic crystal biosensor
# [4] = molecular target: T1, AIF (57 kDa form, AIFΔ1-121); assay: photonic crystal biosensor
# [5] = molecular target: T2, MazEF toxin-antitoxin complex; assay: photonic crystal biosensor; remark: listed apart in the source
# [6] = molecular target: T2, MazEF toxin-antitoxin complex; assay: competition
# T2 sequence (P0AE72 whole entry, chain 1 of 2): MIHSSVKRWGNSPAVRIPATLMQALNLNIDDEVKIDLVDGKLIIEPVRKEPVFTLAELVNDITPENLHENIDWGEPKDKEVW
# T2 sequence (P0AE70 whole entry, chain 2 of 2): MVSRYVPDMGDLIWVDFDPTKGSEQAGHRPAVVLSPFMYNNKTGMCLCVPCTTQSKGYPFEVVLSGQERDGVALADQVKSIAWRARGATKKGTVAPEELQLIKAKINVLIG
# T1 sequence (O95831 122-613, stated change not applied): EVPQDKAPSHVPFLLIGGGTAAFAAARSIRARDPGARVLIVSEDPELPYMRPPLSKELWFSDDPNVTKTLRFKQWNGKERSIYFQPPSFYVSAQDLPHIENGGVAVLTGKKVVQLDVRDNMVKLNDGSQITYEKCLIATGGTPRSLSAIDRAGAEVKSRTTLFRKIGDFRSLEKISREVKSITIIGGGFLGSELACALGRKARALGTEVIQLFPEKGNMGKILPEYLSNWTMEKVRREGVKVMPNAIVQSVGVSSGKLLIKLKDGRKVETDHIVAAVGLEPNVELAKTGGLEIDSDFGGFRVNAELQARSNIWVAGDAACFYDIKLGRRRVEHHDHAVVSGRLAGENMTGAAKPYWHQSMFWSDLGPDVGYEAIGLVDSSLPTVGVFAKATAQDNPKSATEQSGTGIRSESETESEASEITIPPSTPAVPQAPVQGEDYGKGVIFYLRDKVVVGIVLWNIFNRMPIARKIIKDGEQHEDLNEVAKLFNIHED
# Chain of apoptosis inducing factor (AIF) (O95831 122-613): as the sequence (O95831 122-613, stated change not applied) above
molecule,measurement,setting,value
"O=C(O)C1=CC(=C(c2ccc(O)c(C(=O)O)c2)c2ccc(O)c(C(=O)O)c2)C=CC1=O [ATA, aurin tricarboxylic acid]",Kd,[1],19 ± 5 µM
"randomized 30 bp dsDNA, nonbiotinylated (dsDNA) DNA 1: CCGGTACGATACGACGATCGATAGTAGGCC DNA 2: GGCCTACTATCGATCGTCGTATCGTACCGG",binding result,[2],binds
"alternating GC control DNA, biotinylated (dsDNA) DNA 1: GCGCGCGCGCGCGCGCGCGCGCGCGCGCGCGCGCGCGCGCGCGCGCGCGC DNA 2: CGCGCGCGCGCGCGCGCGCGCGCGCGCGCGCGCGCGCGCGCGCGCGCGCG",binding result,[3],no binding
"randomized 30 bp dsDNA, biotinylated (dsDNA) DNA 1: CCGGTACGATACGACGATCGATAGTAGGCC DNA 2: GGCCTACTATCGATCGTCGTATCGTACCGG",binding result,[4],binds
"MazEF promoter DNA, biotinylated (dsDNA) DNA 1: GCTCGTATCTACAATGTAGATTGATATATACTGTATCTACATATGATAGC DNA 2: GCTATCATATGTAGATACAGTATATATCAATCTACATTGTAGATACGAGC",binding result,[5],binds
"MazEF promoter DNA, nonbiotinylated (dsDNA) DNA 1: GCTCGTATCTACAATGTAGATTGATATATACTGTATCTACATATGATAGC DNA 2: GCTATCATATGTAGATACAGTATATATCAATCTACATTGTAGATACGAGC",binding result,[6],binds
